Source: the supplement of paper PMC10126150
± gives the standard deviation of the averaged measurements.

Tested on: ATP
Assay: switch fluorescence ratio, 500 uM ATP over buffer (Cy3 cluster intensity, sum of 5 cycles each) (fold (ratio)); higher = stronger signal-on switching upon ATP binding; sequences stand for … in TCGTCGGCAGCGTCAGATGTGTATAAGAGACAGTTTTTTTTTTTTTTTTTTTTTTTTT…TC
Conditions: aptamer strand: ATP DNA aptamer (quencher-CACCTGGGGGAGTATTGCGGAGGAAGG + anchor), 100 nM annealed; ATP concentration: 500 uM
In short: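 Switching-strand clusters labelled with Cy3 on a modified Illumina MiSeq flow-cell were annealed to 100 nM quencher-labelled ATP aptamer, imaged in selection buffer, and re-imaged after 15 min with 500 uM ATP at 22 °C. This was done over five cycles with NaOH stripping and re-annealing in between. The fluorescence ratio is summed target-cycle over summed buffer-cycle Cy3 intensity per cluster, averaged per switch-domain sequence, excluding clusters outside 100-1000 RFU.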
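Also: ATP exposure 15 min at 22 °C before imaging.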

Sequence	switch fluorescence ratio
GCCAGATTAA	0.976 ± 0.014
GAGGAGGCCA	0.9828 ± 0.0053
TTTGGCTATT	0.976 ± 0.028
AACGGTTGAT	0.974 ± 0.015
TCATCAGGCC	1.02 ± 0.012
ATTTTGTCTT	1.02 ± 0.019
AAGAGGGGGT	1 ± 0.03
CGGCCTAAGG	1.01 ± 0.016
TGGGATGGGT	1.02 ± 0.092
CGAGAACTGG	1.09 ± 0.14
AGTAATACGG	1.3 ± 0.29
TGGATGACGG	0.972 ± 0.13
AAACTTAAGA	0.996 ± 0.049
AGCCGAGTTC	1.01 ± 0.049
GGGACCGGCA	1.01 ± 0.029
GGTTTGTAAC	0.978 ± 0.029
TTATAGATTG	1 ± 0.019
TTTTACGGGA	1.26 ± 0.41
CGGGACCGGA	1.02 ± 0.073
TATATTTGTT	0.997 ± 0.039
GATTTATGAG	0.9668 ± 0.0067
TTTGTACGGG	0.999 ± 0.036
CTTGGTTGCG	0.999 ± 0.014

Sequence	switch fluorescence ratio
AGCAGGGGCT	1.025 ± 0.0069
AATAGGGAGC	0.997 ± 0.041
GGGGGTTACC	0.988 ± 0.02
CCTTAATTTT	1.01 ± 0.019
GCTGCTTGGG	1.01 ± 0.019
CGGGGGACGG	0.982 ± 0.029
GTGACCGGCG	1.03 ± 0.053
ATCATGTGTA	1.01 ± 0.04
TGTGGGAGGT	0.9573 ± 0.0065
GTCGTATTTG	0.9822 ± 0.0057
GTAGCTCCTG	0.995 ± 0.056
AGTATGCATA	0.951 ± 0.016
AGGGGATTGC	0.988 ± 0.019
GATTTAATGG	1 ± 0.021
AATGATGGGT	0.985 ± 0.019
GTTTGTGTCC	0.965 ± 0.079
TTTTCAGTGG	1.02 ± 0.021
TCTACATGAT	1.05 ± 0.013
TGGGACTTTT	1.01 ± 0.053
TTGGGGAGAC	1.07 ± 0.061
TACGGGAATG	1.02 ± 0.036
AACGGTTTGG	1.01 ± 0.021
CGGAGAGTAG	1.03 ± 0.018

Sequence	switch fluorescence ratio
GAACGGCTCG	1.023 ± 0.0038
CGTGACATTG	1.01 ± 0.013
TACCTCACTA	1.42 ± 0.17
TGGTGGTTTT	1.03 ± 0.025
TCGTTTTTGG	1 ± 0.041
CGTATTATGG	0.998 ± 0.05
TCGTTGTTAT	1 ± 0.023
CACGTTATAG	1.19 ± 0.026
TTTGCCTGTA	0.992 ± 0.032
TATTCTTGGG	1 ± 0.028
GGGCTTATGA	1.018 ± 0.0044
ATTAAATAG	0.9803 ± 0.0081
GTCGTGGTTT	0.982 ± 0.037
GGGGACTAGT	0.957 ± 0.043
ATCATTGGG	1.014 ± 0.008
ATGGGGTTTC	1.01 ± 0.051
AGGGAGAAAA	0.974 ± 0.039
AGGGAATATT	1.01 ± 0.027
CGCTCGGGTT	1.003 ± 0.0025
TGTTTCATTC	0.978 ± 0.012
ATTGATTTGT	0.975 ± 0.018
GGGAAGGGTA	1 ± 0.033
AGAGTATCTA	0.962 ± 0.048

Sequence	switch fluorescence ratio
TTATTGGTA	1.04 ± 0.016
GGCTGGGCTG	0.991 ± 0.029
GTGCTATCTA	1 ± 0.023
CGGATTAGGT	0.993 ± 0.028
AGGTCACGGC	1 ± 0.034
CTGTCTTGA	1 ± 0.038
TGATTTGTAT	0.968 ± 0.018
TCCGGTTTTT	1.07 ± 0.16
GCGACATAGG	0.964 ± 0.042
AGAGGGCGGT	1.02 ± 0.024
GTTTAGTATT	0.999 ± 0.019
GATATCATCT	0.99 ± 0.042
ACGGTTTCGT	1.01 ± 0.014
TTTTTACATT	0.99 ± 0.032
AAGTTGCTTG	0.989 ± 0.02
GACTGTGAGA	1 ± 0.034
CCTTGAAAGG	1 ± 0.011
GCTACTTTTG	0.998 ± 0.027
AGGGTAATTT	1.043 ± 0.0063
CAGCAGGGGT	1.24 ± 0.15
TTTTAAGGAG	1 ± 0.047
TCTTCTGTCG	1.001 ± 0.0087
TAAGGCATAG	1.04 ± 0.044

Sequence	switch fluorescence ratio
ATAATCGATT	0.978 ± 0.011
GGCAATAGGG	1.14 ± 0.056
AGTTAACTCA	1.013 ± 0.0056
GCCGTTGGGG	0.99 ± 0.031
AGGGTTGGTG	1.04 ± 0.077
GGCTCGGCAG	1.05 ± 0.043
AACGGCAGGT	1.03 ± 0.013
TGATAATAGA	0.9953 ± 0.0011
TCATTGCTTT	1 ± 0.015
TCCGATTGAA	1.08 ± 0.011
TCGAAGATGT	0.996 ± 0.019
CAGTACGCGT	1.04 ± 0.017
GTCGGACTAG	1 ± 0.051
GGCCATCCAG	1.01 ± 0.036
GGAACGAAAG	0.995 ± 0.043
GGTTGGTTGG	0.9769 ± 0.0012
TAGAATCAGC	0.99 ± 0.07
ACCTCGAAGA	1.03 ± 0.014
TCAGCATGGT	1.04 ± 0.091
TGCGGATATG	0.982 ± 0.023
ATGATAAATT	0.963 ± 0.04
GCTGCAGATT	0.988 ± 0.03
TAGTAATTGG	0.987 ± 0.029

Sequence	switch fluorescence ratio
GGTGTAGCGA	1.03 ± 0.026
GATATCCGAG	1.05 ± 0.011
AAGTTGTGGG	0.967 ± 0.043
AAGCGGGGTG	1.06 ± 0.063
GAAAAAGGCA	0.974 ± 0.033
GGGGGAGATA	1 ± 0.025
ATAAAGATAG	1.0006 ± 7.5e-05
GCTCGTTAGG	0.995 ± 0.029
TTTTCAATTT	0.9758 ± 0.0064
ACGAGAGGGG	0.996 ± 0.048
GTGAACAGCA	1.01 ± 0.025
ATGTAAAAAC	0.965 ± 0.029
CGGGCCTTTT	1 ± 0.023
TTCCAAATCC	1.01 ± 0.056
GGAAATTGGG	0.994 ± 0.016
AAGTTGGATA	0.993 ± 0.019
AGTAATGGTT	1.01 ± 0.014
TTTGTTTGAT	0.999 ± 0.034
GGACTTCCTG	1.003 ± 0.0065
CGTGGATAGT	0.955 ± 0.03
CATAGGTAGT	0.981 ± 0.016
TCGTTAATCA	0.9835 ± 0.0088
GTGGACATAT	0.991 ± 0.015

Sequence	switch fluorescence ratio
TTTCTTTGCA	1.058 ± 0.0081
AGGGAGCGAA	1.003 ± 0.0097
TAGGATTTTT	1.026 ± 0.0081
GTATGTCGTT	0.968 ± 0.034
AGTGTGCATG	1.03 ± 0.013
TTCCGTCTTC	1.09 ± 0.11
TTATGAGTCG	0.979 ± 0.032
ATGGCAAAAG	1.01 ± 0.045
GGTCAGGGGA	0.988 ± 0.04
AGTTTACATT	1.02 ± 0.026
CATTTCGTAA	1.18 ± 0.02
TAATCCTCGT	1.005 ± 0.0058
CTAAAATTAA	1.01 ± 0.031
CTGGCATGGG	0.979 ± 0.014
ATATATACTG	1.05 ± 0.071
TGGGAATGCG	1.013 ± 0.0026
GCAGGTATTG	1.02 ± 0.012
GGGGTAAGTT	0.989 ± 0.035
TAAATCGTTG	0.9906 ± 0.005
